Source: paper PMC2770678 (Nucleic Acids Research, 2009)

Biological target: T1, P. furiosus AP endonuclease (PfuAPE), PF0258 gene product, His-tagged recombinant (Pyrococcus furiosus, UniProt Q8U437 1-281)
T1 sequence (looked up): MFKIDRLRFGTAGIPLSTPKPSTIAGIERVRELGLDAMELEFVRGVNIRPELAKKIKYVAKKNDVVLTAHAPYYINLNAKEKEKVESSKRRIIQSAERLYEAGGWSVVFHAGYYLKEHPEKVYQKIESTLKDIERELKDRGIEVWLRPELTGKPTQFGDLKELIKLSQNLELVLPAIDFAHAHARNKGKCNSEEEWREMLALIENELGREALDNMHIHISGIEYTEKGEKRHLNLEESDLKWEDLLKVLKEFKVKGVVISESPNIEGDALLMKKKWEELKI
Assay: SPR

- Kd: 1000 nM
B1: P. furiosus proliferating cell nuclear antigen (PfuPCNA), recombinant wild type (natural protein, Pyrococcus furiosus, UniProt O73947 1-249, looked up)
chain: MPFEIVFEGAKEFAQLIDTASKLIDEAAFKVTEDGISMRAMDPSRVVLIDLNLPSSIFSKYEVVEPETIGVNMDHLKKILKRGKAKDTLILKKGEENFLEITIQGTATRTFRVPLIDVEEMEVDLPELPFTAKVVVLGEVLKDAVKDASLVSDSIKFIARENEFIMKAEGETQEVEIKLTLEDEGLLDIEVQEETKSAYGVSYLSDMVKGLGKADEVTIKFGNEMPMQMEYYIRDEGRLTFLLAPRVEE
